PMC9200344, “The Caenorhabditis elegans TDRD5/7-like protein, LOTR-1, interacts with the helicase ZNFX-1 to balance epigenetic signals in the germline” (PLoS Genetics, 2022)
One block for each molecule: values may come before it.

Tests used:
[1] = target: 3xFLAG::GFP::LOTR-1 with Tudor deletion (sam102) (C. elegans (endogenous in embryos and young adults)); test: affinity purification with mass spectrometry; anti-FLAG (M2) IP of 3xFLAG::GFP::LOTR-1 (wild type, LOTUS or Tudor deletion) on Protein G magnetic beads from embryo and young adult extracts, 4°C, washes with 300 mM NaCl; quantitative MS against the lotr-1 deletion expressing 3xFLAG::GFP alone
[2] = target: 3xFLAG::GFP::LOTR-1 with e+mLOTUS deletion (sam113) (C. elegans (endogenous in embryos and young adults)); test: as above
[3] = target: T1, 3xFLAG::GFP::ZNFX-1 (C. elegans (endogenous in embryos and …, UniProt E9P860 1-2443)); test: affinity purification with mass spectrometry; anti-FLAG IP of 3xFLAG::GFP::ZNFX-1 from embryos and adults of lotr-1(xf58) mutants (in-frame deletion that removes most of the LOTUS domain); quantitative MS compared with the wild-type background; conditions: partners not purified
T1 construct: ZNFX-1, Z-granule helicase, C. elegans; also called FLAG-tagged ZNFX-1; source: tagged ZNFX-1 expressed in worms, C. elegans embryo and young adult lysate
T1 sequence (E9P860 whole entry, the tested form may be a part): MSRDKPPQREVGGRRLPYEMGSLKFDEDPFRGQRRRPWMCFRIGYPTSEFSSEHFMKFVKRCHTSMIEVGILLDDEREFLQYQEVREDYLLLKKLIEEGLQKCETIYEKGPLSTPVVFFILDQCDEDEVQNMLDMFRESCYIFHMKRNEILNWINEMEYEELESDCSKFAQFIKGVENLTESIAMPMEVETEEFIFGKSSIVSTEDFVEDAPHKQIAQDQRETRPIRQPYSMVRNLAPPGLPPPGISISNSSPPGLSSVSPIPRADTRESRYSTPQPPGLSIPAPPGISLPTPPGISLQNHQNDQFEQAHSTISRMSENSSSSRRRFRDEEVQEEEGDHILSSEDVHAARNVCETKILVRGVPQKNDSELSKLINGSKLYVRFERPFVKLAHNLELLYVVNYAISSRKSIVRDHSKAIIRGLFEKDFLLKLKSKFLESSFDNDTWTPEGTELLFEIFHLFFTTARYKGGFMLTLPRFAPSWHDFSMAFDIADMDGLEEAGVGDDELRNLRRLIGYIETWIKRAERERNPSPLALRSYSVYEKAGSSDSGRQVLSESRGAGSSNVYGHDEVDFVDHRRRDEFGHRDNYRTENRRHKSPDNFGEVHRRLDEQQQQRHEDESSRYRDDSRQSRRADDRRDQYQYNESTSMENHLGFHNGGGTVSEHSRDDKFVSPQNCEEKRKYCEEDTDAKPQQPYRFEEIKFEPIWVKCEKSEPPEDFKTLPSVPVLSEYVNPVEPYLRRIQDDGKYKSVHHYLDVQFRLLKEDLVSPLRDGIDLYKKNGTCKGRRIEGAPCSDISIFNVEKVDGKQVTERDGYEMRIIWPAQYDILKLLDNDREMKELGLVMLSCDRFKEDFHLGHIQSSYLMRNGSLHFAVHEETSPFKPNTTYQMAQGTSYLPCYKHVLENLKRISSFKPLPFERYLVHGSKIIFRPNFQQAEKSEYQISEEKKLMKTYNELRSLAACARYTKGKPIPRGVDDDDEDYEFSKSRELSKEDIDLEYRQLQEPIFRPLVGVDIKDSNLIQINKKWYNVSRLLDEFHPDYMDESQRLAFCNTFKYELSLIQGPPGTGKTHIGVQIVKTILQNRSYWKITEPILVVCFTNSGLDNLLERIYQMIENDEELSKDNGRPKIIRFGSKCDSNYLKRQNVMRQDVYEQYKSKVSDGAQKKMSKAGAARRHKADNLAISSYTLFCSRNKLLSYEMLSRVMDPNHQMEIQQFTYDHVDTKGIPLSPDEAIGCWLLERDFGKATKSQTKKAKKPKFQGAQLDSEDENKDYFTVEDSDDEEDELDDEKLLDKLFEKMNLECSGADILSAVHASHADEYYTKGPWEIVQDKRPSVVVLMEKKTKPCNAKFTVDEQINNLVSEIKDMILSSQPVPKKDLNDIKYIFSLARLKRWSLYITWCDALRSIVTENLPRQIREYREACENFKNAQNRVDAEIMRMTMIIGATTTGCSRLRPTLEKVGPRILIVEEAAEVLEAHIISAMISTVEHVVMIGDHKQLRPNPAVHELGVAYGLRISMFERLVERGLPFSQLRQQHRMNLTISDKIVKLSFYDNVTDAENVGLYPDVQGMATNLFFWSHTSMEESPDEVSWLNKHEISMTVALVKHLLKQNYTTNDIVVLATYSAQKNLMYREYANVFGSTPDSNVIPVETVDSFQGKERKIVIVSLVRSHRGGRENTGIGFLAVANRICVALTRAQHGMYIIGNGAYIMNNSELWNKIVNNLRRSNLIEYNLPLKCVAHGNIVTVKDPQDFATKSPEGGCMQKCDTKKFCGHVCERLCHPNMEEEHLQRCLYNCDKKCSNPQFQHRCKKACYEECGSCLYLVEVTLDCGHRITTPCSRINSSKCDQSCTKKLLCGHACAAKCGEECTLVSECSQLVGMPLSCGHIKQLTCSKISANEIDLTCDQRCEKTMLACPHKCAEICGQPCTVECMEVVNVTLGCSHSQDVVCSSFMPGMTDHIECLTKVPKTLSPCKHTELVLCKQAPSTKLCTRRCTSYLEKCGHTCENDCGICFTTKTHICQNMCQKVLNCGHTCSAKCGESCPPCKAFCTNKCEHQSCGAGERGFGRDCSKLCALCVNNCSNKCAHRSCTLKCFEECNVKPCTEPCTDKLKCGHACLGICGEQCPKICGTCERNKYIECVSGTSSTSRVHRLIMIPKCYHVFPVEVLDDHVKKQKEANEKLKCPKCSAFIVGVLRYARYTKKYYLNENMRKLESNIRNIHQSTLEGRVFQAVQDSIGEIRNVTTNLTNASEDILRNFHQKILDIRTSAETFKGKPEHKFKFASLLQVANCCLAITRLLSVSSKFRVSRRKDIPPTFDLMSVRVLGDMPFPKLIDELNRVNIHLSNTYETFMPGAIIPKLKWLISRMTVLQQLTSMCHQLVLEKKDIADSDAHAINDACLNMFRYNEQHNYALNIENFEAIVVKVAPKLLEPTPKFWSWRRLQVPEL

percent reduction of association against wild-type LOTR-1 (embryos) [1]: 90%
fold change of association against wild-type LOTR-1 (embryos) [2]: 2 fold
Molecule: MEG-3 (natural protein)

fold change of association in lotr-1(xf58) mutant adults against wild type [3]: 2 fold
B1: MIP-2 (natural protein, C. elegans (endogenous in young adults), UniProt P90898 1-666, looked up)
chain: MSEEEGKEKMNKMRKRIERDAYSVLLSFKDGASPKQVEQRMDDTLGYDYCSKYHLAGVYDMAQILIEHPDVRQTYEGKFKIIANEDNQDLVDLISKQSDGPRNKGSSKRGRRSSSSAGYHQRSMFGGELSRSPRYSSCRPRSYASFGKAASKKLFQNFGQPSRPFSVLSSSKASTSSAIQSFGTGNHDSTFGKSSGSNANPTNPPVAPSIQRPLMRPSTASSIPIFILRSGSRSPVKKHVQIKTSSSSSHMPTITEFMNNTKRMMVKELPASVHLSEMTELYEREFGAPVDPLLLFSKSWMLMAKTTFKEFLQVIDGEVSLREKWLADQGTTTKSVLELPSRKVEATTVAQLPISQGFRYQDPNSKPKADLASISKSLDGLTLNARKSKKEASKSDMMPFIPKNHREIVTKRFGNAPSSVKADSIVERVQSTSCIFGRQSVPSVLSISSSSTVVPEKLNEEGLKYDSKELLQLKALKKTDVMLVNVYASLKAFPQMIDARAKALMQQNLEVQRNMASRASLNVVAQVQRPSSSINLQRVRVNPNQCVKKVVPVRTLGQALAEVRRQREQVEQEAFNEQPEPSPSPRLGMGSSSHAASNVSDDGWGAQVVQKVEKSPPKPFTVLLPPMSKGAGVKIRPRSRVVLCHSSASSFPPSLNSDFSPNISQA
notes: MIP-2, LOTUS-domain protein, C. elegans; source: endogenous, C. elegans young adult lysate
